Source: article PMC9413769

Target: eGFP-Unr (UniProt O75534)
Assay: FRET or BRET

Chain of UniProt O75534 (O75534 whole entry): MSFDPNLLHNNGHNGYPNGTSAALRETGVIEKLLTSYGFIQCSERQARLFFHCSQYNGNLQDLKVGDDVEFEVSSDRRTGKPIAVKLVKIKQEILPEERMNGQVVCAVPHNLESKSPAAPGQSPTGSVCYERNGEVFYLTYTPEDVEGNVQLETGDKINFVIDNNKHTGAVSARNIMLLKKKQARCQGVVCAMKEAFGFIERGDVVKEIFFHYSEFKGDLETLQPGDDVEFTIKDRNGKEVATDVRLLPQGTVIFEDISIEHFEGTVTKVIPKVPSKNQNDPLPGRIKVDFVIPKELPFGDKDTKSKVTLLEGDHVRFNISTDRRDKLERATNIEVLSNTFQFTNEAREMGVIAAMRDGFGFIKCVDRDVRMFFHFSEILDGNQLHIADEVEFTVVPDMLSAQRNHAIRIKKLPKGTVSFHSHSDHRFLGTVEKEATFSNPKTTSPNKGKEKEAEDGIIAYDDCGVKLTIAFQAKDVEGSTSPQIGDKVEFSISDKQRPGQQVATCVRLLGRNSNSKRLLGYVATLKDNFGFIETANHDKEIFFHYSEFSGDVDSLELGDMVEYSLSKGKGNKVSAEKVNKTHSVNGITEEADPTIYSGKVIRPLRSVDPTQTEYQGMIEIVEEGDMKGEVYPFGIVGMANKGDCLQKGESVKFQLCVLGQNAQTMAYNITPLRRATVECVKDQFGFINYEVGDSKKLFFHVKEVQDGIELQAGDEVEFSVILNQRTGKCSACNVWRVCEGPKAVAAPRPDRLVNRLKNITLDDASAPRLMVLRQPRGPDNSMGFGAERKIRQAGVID

Substance | FRET efficiency of the interacting population (two-population analysis) [%] | average FRET efficiency (one-population analysis) [%] | percent of eGFP-Unr interacting (two-population analysis) [%] | FRET efficiency (one-population analysis) [%]
NCp7-mCherry (natural protein) | > 35 | 5.1 | 21 | –
mCherry-NCp7 (natural protein) | > 35 | 6.8 | 26 | –
GagG2A-mCherry (natural protein) | 46 | – | 25 | 7.5
